{"source": "patent US20030064921A1", "about": "“Methods and compounds for modulating melanocortin receptor ligand binding and activity” (The Regents of the University of California, priority 1999, published 2003)", "molecules": {"B1": {"name": "AGRP: human AGRP is a 132 residue polypeptide (SEQ ID NO:1), natural antagonist of melanocortin receptors 3 and 4 (protein, listed as Homo sapiens)", "chain": "MLTAAVLSCALLLALPATRGAQMGLAPMEGIRRPDQALLPELPGLGLRAPLKKTTAEQAEEDLLQEAQALAEVLDLQDREPRSSRRCVRLHESCLGQQVPCCDPCATCYCRFFNAFCYCRKLGTAMNPCSRT"}, "B2": {"name": "mini-AGRP Ac-CVRLHESCLGQQVPCCDPAATCYCRFFNAFCYCR-NH2 (peptide)", "peptide": "Ac-CVRLHESCLGQQVPCCDPAATCYCRFFNAFCYCR-NH2", "modifications": "disulfide (positions not given here); not fully specified (bridges); printed as Ac-CVRLHESCLGQQVPCCDPAATCYCRFFNAFCYCR-NH2; also: four disulfide bonds, pairing not given here", "notes": "Fmoc solid-phase synthesis, folded under oxidizing conditions"}}, "key": {"[1]": {"biological_target": "MC IR (Homo sapiens, UniProt Q01726)", "sequence (Q01726 whole entry)": "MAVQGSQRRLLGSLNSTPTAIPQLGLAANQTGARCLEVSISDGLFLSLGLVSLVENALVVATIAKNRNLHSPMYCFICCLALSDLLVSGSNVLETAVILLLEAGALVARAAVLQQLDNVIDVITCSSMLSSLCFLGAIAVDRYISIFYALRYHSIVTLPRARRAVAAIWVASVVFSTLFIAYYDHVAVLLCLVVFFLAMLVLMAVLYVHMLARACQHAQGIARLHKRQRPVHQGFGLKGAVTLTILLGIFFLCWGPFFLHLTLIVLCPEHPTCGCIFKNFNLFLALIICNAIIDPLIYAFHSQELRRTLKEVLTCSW", "experiment": "Displacement of NDP-MSH at melanocortin receptor (binding)", "procedure": "(§1) Suitable binding assays are well known to those of skill in the art. In a preferred embodiment, the binding assay is a competitive assay that measures the ability of the test composition to displace/compete a reference ligand from a melanocortin receptor. In one preferred approach specific binding of ligands of this invention to cells expressing the MC-3 receptor is determined by competition experiments using labeled (e.g. ^125I-labeled) Nle^4-D-Phe^7-α-MSH (NDP-MSH), as described in Tatro et al. (1990) Cancer Res. 50: 1237-1242).\n(§2) The mini-AGRP binding was tested by examining its ability to displace NDP-MSH, a well established high affinity MCR agonist. […] Antagonist activity was then determined using a cAMP assay."}, "[2]": {"biological_target": "T1, MC3R (Homo sapiens, UniProt P41968)", "T1 sequence (P41968 whole entry)": "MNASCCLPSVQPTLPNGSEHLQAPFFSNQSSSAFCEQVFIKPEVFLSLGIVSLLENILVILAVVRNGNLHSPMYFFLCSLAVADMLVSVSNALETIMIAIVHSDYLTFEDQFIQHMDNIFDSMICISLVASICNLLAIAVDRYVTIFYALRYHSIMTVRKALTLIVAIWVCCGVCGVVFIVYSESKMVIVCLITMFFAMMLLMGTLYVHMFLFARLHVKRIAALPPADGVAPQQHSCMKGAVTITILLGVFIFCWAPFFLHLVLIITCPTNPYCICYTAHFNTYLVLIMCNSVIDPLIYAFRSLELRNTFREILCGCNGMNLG", "experiment": "Displacement of NDP-MSH at melanocortin receptor (binding)", "procedure": "as §1, §2"}, "[3]": {"biological_target": "T2, MC4R (Homo sapiens, UniProt P32245)", "T2 sequence (P32245 whole entry)": "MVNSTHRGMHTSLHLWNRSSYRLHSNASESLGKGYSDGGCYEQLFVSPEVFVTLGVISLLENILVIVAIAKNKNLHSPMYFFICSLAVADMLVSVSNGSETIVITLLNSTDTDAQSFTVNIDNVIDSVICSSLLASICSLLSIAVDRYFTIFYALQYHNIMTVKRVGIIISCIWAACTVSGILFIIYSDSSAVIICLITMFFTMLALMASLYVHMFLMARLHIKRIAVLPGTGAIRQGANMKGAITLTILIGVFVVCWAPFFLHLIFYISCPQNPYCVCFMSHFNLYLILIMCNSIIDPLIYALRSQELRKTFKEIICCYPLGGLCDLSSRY", "experiment": "Displacement of NDP-MSH at melanocortin receptor (binding)", "procedure": "as §1, §2"}, "[4]": {"biological_target": "MC5R (Homo sapiens, UniProt P33032)", "sequence (P33032 whole entry)": "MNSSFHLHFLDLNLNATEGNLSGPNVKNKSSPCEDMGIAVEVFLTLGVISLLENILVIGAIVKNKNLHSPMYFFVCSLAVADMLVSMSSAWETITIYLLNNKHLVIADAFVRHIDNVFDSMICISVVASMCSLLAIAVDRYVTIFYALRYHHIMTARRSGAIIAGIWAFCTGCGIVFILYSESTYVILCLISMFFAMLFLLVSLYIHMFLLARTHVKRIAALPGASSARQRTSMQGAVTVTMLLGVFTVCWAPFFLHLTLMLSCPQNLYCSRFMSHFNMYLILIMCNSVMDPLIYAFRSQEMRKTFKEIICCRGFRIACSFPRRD", "experiment": "Displacement of NDP-MSH at melanocortin receptor (binding)", "procedure": "as §1, §2"}, "[5]": {"biological_target": "T1, MC3R", "experiment": "cAMP assay, suppression of α-MSH stimulated cAMP production", "assay_type": "cell-based", "source_text": "(§3) Preferred assays measure, directly, or indirectly, melanocortin receptor induced changes in intracellular cAMP concentrations. One such assay measures the ability of cAMP to displace (8-^3H) cAMP from a high affinity cAMP binding protein (see Gilman (1979) Proc. Natl. Acad. Sci., USA, 67: 305-312). Briefly, test cells are exposed to the ligands to be screened. Following treatment, the cells are washed twice with phosphate buffered saline and intracellular cAMP extracted by lysing the cells with 1 mL of 60% ethanol. The assay is then run as described by Gilman, supra.).\nas §2"}, "[6]": {"biological_target": "T2, MC4R", "experiment": "cAMP assay, suppression of α-MSH stimulated cAMP production", "assay_type": "cell-based", "source_text": "as §3, §2"}, "[7]": {"biological_target": "T3, human MC4r (Homo sapiens, UniProt P32245)", "T3 construct": "expressed in transfected cells; host or cells: HEK-293", "T3 sequence (P32245 whole entry)": "as the sequence (P32245 whole entry) above", "experiment": "Inhibition of NDP-MSH stimulated cAMP generation in HEK-293 cells transfected with human MC4r", "assay_type": "cell-based", "conditions": "5.0×10^−6 M", "procedure": "Control experiments were performed with no MARP. […] Additional samples for HX experiments were prepared by lyophilization of protonated samples followed by reconstitution in 700 μl D2O.\nThis experiment measured inhibition of NDP-MSH stimulated cAMP generation in cells transfected with MC4r. A control experiment was conducted with no MARP present."}, "[8]": {"biological_target": "T1, MC3R", "conditions": "versus agouti; cited from earlier work"}, "[9]": {"biological_target": "T2, MC4R", "conditions": "versus agouti; cited from earlier work"}, "[10]": {"biological_target": "T4, human melanocortin receptor 4 (human, UniProt P32245 1-332)", "T4 construct": "whole, on cells; also called MC4r; MC4R", "T4 sequence (P32245 whole entry)": "as above", "experiment": "displacement of NDP-MSH from the receptor"}}, "note": "Where no end group is shown, it is not given here.", "data": [{"molecule": "Ac-CVRLHESCLGQQVPCCDPAATCYCRFFNAFCYCR-NH2 (disulfide (positions not given here); not fully specified (bridges); printed as Ac-CVRLHESCLGQQVPCCDPAATCYCRFFNAFCYCR-NH2) [mini-AGRP]", "values": [{"measurement": "displacement of NDP-MSH, potency compared with AGRP(87-132)", "setting": "[1]", "value": "potency equivalent to that of AGRP(87-132)"}, {"measurement": "displacement of NDP-MSH, potency compared with AGRP(87-132)", "setting": "[2]", "value": "potency equivalent to that of AGRP(87-132)"}, {"measurement": "displacement of NDP-MSH, potency compared with AGRP(87-132)", "setting": "[3]", "value": "potency equivalent to that of AGRP(87-132)"}, {"measurement": "displacement of NDP-MSH, potency compared with AGRP(87-132)", "setting": "[4]", "value": "potency equivalent to that of AGRP(87-132)"}, {"measurement": "antagonist activity: suppression of α-MSH stimulated cAMP production", "setting": "[5]", "value": "potent activity"}, {"measurement": "antagonist activity: suppression of α-MSH stimulated cAMP production", "setting": "[6]", "value": "potent activity"}]}, {"molecule": "MARP with Arg-25 to Ala substitution: MARP single mutant with Arg-25 replaced by Ala in the active loop, chemically synthesized (Ac-CVRLHESCLGQQVPCCDPCATCYCAFFNAFCYCRKLGTAMNPCSRT; disulfide (positions not given here))", "values": [{"measurement": "inhibition of NDP-MSH stimulated cAMP generation", "setting": "[7]", "value": "complete loss of inhibitory activity"}]}, {"molecule": "B1", "values": [{"measurement": "binding affinity greater than agouti", "setting": "[8]", "value": "approximately 100 fold"}, {"measurement": "binding affinity greater than agouti", "setting": "[9]", "value": "approximately 100 fold"}]}, {"molecule": "B2", "values": [{"measurement": "binding result", "setting": "[10]", "value": "binds"}]}]}
